Source: publication PMC8496693

What was measured:
mChe-INPP5E [1] = target: mChe-INPP5E (UniProt Q9NRR6); assay: VIP assay (fluorescence intensity of mChe-INPP5E on GST-anti-GFP Nb beads); details: lysates of HEK293T cells coexpressing both constructs; three independent experiments; parent: 100; read off a plot
mChe-INPP5E [2] = target: mChe-INPP5E (UniProt Q9NRR6); assay: immunoblotting of anti-GFP Nb precipitates (band intensity of mChe-INPP5E); details: lysates of HEK293T cells coexpressing both constructs; three independent experiments; parent: 100; read off a plot

Chain of ARL13B(WT)-EGFP, Q3SXY8 AAEA (RVEP mutated to AAEA) (Q3SXY8 other isoform, or with tags, fused parts or gaps AAEA (RVEP mutated to AAEA)): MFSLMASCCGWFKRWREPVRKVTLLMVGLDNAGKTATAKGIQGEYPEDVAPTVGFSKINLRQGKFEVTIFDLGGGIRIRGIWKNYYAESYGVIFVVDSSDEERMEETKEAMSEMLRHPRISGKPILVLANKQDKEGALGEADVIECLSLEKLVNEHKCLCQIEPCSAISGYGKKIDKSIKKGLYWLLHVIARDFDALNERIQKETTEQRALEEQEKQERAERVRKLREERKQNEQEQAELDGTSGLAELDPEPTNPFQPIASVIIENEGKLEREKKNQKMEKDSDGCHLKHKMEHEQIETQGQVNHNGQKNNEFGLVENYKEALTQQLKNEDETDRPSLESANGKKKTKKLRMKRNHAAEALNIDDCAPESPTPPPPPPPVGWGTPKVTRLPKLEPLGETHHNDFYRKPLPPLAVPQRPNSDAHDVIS
Chain of mChe-INPP5E (Q9NRR6 whole entry): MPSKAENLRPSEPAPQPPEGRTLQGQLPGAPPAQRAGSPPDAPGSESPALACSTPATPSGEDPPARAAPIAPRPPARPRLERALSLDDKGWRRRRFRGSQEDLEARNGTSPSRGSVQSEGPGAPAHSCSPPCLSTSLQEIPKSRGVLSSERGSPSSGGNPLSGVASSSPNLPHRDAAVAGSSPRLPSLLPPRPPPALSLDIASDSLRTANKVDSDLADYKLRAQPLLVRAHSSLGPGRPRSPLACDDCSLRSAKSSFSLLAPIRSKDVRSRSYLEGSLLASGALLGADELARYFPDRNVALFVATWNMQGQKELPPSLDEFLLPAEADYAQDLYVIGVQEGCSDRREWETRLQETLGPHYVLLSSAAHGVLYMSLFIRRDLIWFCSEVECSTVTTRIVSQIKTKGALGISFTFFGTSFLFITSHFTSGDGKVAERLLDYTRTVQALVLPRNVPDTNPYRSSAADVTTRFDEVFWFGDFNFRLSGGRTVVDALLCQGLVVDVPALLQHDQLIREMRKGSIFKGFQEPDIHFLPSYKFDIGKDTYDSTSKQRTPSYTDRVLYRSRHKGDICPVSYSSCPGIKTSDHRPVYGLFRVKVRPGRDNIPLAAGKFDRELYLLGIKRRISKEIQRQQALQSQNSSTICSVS

## ARL13B(WT)-EGFP, Q3SXY8 AAEA (RVEP mutated to AAEA)
mChe-INPP5E [1]
  percent of parent (% of ARL13B(WT)-EGFP): 100
mChe-INPP5E [2]
  percent of parent (% of ARL13B(WT)-EGFP): 110
